Test results as given in patent publication US11471462B2, “Compositions and methods for detecting and treating diabetes” (THE BROAD INSTITUTE, INC., priority 2016, dated 2022).

These molecules were tested on SLC16A11 (assay: SLC16A11 protein-protein interaction study (immunoprecipitation, quantitative mass spectrometry)). Conditions: putative SLC16A11^REF interaction partners; immunoprecipitation from HEK293T cells vs empty vector control; Blandt-Altman.
Parameters: species or system human
From the text: Alternatively, these variants may result in reduced transport because they disrupt protein-protein interactions responsible for correct SLC16A11 function. To explore this possibility, SLC16A11 was immunoprecipitated from HEK293T cells expressing either REF or T2D risk SLC16A11-V5 or empty vector control and quantitative mass spectrometry was used to define the SLC16A11 interactome.
Another mechanism through which the variants could affect activity is through disruption of protein-protein interactions. To explore this possibility, quantitative mass spectrometry-based protein-protein interaction studies were performed to define the SLC16A11 interactome and evaluate if the T2D risk coding variants alter any interactions.
Beads were then washed once with lysis buffer and three times with wash buffer. After the last wash, residual wash buffer was removed, 10 μL fresh wash buffer was added, and beads were stored at −80° C. until analysis by the Proteomics Platform at the Broad Institute, as detailed in the “Proteomics Methods for SLC16A11 Protein Interaction Studies” below.
The beads from immunopurification were washed once with IP lysis buffer, then three times with PBS, the three different lysates of each replicate were resuspended in 90 uL digestion buffer (2M Urea, 50 mM Tris HCl), 2 ug of sequencing grade trypsin added, 1 hour shaking at 700 rpm. The supernatant was removed and placed in a fresh tube. The beads were then washed twice with 50 uL digestion buffer and combined with the supernatant. The combined supernatants were reduced (2 uL 500 mM DTT, 30 minutes, RT), alkylated (4 uL 500 mM IAA, 45 minutes, dark) and a longer overnight digestion performed: 2 ug (4 uL) trypsin, shake o/n, The samples were then quenched with 20 uL 10% FA and desalted on 10 mg SepPak columns.
Desalted peptides were labelled with iTRAQ reagents according to the manufacturer's instructions (AB Sciex, Foster City, Calif.). Peptides were dissolved in 30 μl of 0.5 M TEAB pH 8.5 solution and labeling reagent was added in 70 ul of ethanol. After 1 h incubation the reaction was stopped with 50 mM Tris/HCl pH 7.5. Differentially labelled peptides were mixed and subsequently desalted on 10 mg SepPak columns.
Reconstituted peptides were separated on an online nanoflow EASY-nLC 1000 UHPLC system (Thermo Fisher Scientific) and analyzed on a benchtop Orbitrap Q Exactive Plus mass spectrometer (Thermo Fisher Scientific). The peptide samples were injected onto a capillary column (Picofrit with 10 μm tip opening/75 μm diameter, New Objective, PF360-75-10-N-5) packed in-house with 20 cm C18 silica material (1.9 μm ReproSil-Pur C18-AQ medium, Dr. Maisch GmbH, r119.aq). The UHPLC setup was connected with a custom-fit microadapting tee (360 μm, IDEX Health & Science, UH-753), and capillary columns were heated to 50° C. in column heater sleeves (Phoenix-ST) to reduce backpressure during UHPLC separation. Injected peptides were separated at a flow rate of 200 nL/min with a linear 80 min gradient from 100% solvent A (3% acetonitrile, 0.1% formic acid) to 30% solvent B (90% acetonitrile, 0.1% formic acid), followed by a linear 6 min gradient from 30% solvent B to 90% solvent B. Each sample was run for 120 min, including sample loading and column equilibration times. The Q Exactive instrument was operated in the data-dependent mode acquiring HCD MS/MS scans (R=17,500) after each MS1 scan (R=70,000) on the 12 top most abundant ions using an MS1 ion target of 3×10^6 ions and an MS2 target of 5×10^4 ions. The maximum ion time utilized for the MS/MS scans was 120 ms; the HCD-normalized collision energy was set to 27; the dynamic exclusion time was set to 20 s, and the peptide match and isotope exclusion functions were enabled.
All mass spectra were processed using the Spectrum Mill software package v6.0 pre-release (Agilent Technologies) which includes modules developed by us for iTRAQ-based quantification. […]

| Molecule | BA log fold change |
| --- | --- |
| PPP6R3 (protein) MFWKFDLHSSSHIDTLLEREDVTLKELMDEEDVLQECKAQNRKLIEFLLKAECLEDLVSFIIEEPPQDMDEKIRYKYPNISCELLTSDVSQMNDRLGEDESLLMKLYSFLLNDSPLNPLLASFFSKVLSILISRKPEQIVDFLKKKHDFVDLIIKHIGTSAIMDLLLRLLTCIEPPQPRQDVLNWLNEEKIIQRLVEIVHPSQEEDRHSNASQSLCEIVRLSRDQMLQIQNSTEPDPLLATLEKQEIIEQLLSNIFHKEKNESAIVSAIQILLTLLETRRPTFEGHIEICPPGMSHSACSVNKSVLEAIRGRLGSFHELLLEPPKKSVMKTTWGVLDPPVGNTRLNVIRLISSLLQTNTSSINGDLMELNSIGVILNMFFKYTWNNFLHTQVEICIALILASPFENTENATITDQDSTGDNLLLKHLFQKCQLIERILEAWEMNEKKQAEGGRRHGYMGHLTRIANCIVHSTDKGPNSALVQQLIKDLPDEVRERWETFCTSSLGETNKRNTVDLVTTCHIHSSSDDEIDFKETGFSQDSSLQQAFSDYQMQQMTSNFIDQFGFNDEKFADQDDIGNVSFDRVSDINFTLNTNESGNIALFEACCKERIQQFDDGGSDEEDIWEEKHIAFTPESQRRSSSGSTDSEESTDSEEEDGAKQDLFEPSSANTEDKMEVDLSEPPNWSANFDVPMETTHGAPLDSVGSDVWSTEEPMPTKETGWASFSEFTSSLSTKDSLRSNSPVEMETSTEPMDPLTPSAAALAVQPEAAGSVAMEASSDGEEDAESTDKVTETVMNGGMKETLSLTVDAKTETAVFKRVLKSYREEGKLSTSQDAACKDAEECPETAEAKCAAPRPPSSSPEQRTGQPSAPGDTSVNGPV | 1.18 |
| UBAC2 (protein) HCQKLFVYDLHAVKNDFQIWRLICGRIICLDLKDTFCSSLLIYNFRIFERRYGSRKFASFLLGSWVLSALFDFLLIEAMQYFFGITAASNLPSGFLAPVFALFVPFYCSIPRVQVAQILGPLSITNKTLIYILGLQLFTSGSYIWIVAISGLMSGLCYDSKMFQVHQVLCIPSWMAKFFSWTLEPIFSSSEPTSEARIGMGATLDIQRQQRMELLDRQLMFSQFAQGRRQRQQQGGMINWNRLFPPLRQRQNVNYQGGRQSEPAAPPLEVSEEQVARLMEMGFSRGDALEALRASNNDLNVATNFLLQH | 1.21 |
| TIMM23B (protein) MEGGGGSGDKTTGVLAGFFGAGEAGYSHADLAGVPLTGMNPLCPYLNVDPRYLVQDTDEFILPTGANKTWGRFELAFFTIGGCCMTGAAFGAMNGLRLGLKETQNMAWSKPGNVQILNMVTRQGALWANTLGSLALLYSAFGVIIEKTRGAEDDLNTVAAGTMTGMLYKCTVSEMALDSPFCVLLSGS | 1.22 |
| AGPAT6 (protein) VSFGIRKLYMKSLLKIFAWATLRMERGAKEKNHQLYKPYTNGIIAKDPTSLEEEIKEIRRSGSSKALDNTPEFELSDIFYFCRKGMETIMDDEVTKRFSAEELESWNLLSRTNYNFQYISLRLTVLWGLGVLIRYCFLLPLRIALAFTGISLLVVGTTVVGYLPNGRFKEFMSKHVHLMCYRICVRALTAIITYHDRENRPRNGGICVANHTSPIDVIILASDGYYAMVGQVHGGLMGVIQRAMVKACPHVWFERSEVKDRHLVAKRLTEHVQDKSKLPILIFPEGTCINNTSVMMFKKGSFEIGATVYPVAIKYDPQFGDAFWNSSKYGMVTYLLRMMTSWAIVCSVWYLPPMTREADEDAVQFANRVKSAIARQGGLVDLLWDGGLKREKVKDTFKEEQQKLYSKMIVGNHKDRSRS | 1.16 |
| LPCAT1 (protein) MRLRGCGPRAAPASSAGASDARLLAPPGRNPFVHELRLSALQKAQVALMTLTLFPVRLLVAAAMMLLAWPLALVASLGSAEKEPEQPPALWRKVVDFLLKAIMRTMWFAGGFHRVAVKGRQALPTEAAILTLAPHSSYFDAIPVTMTMSSIVMKAESRDIPIWGTLIQYIRPVFVSRSDQDSRRKTVEEIKRRAQSNGKWPQIMIFPEGTCTNRTCLITFKPGAFIPGAPVQPVVLRYPNKLDTITWTWQGPGALEILWLTLCQFHNQVEIEFLPVYSPSEEEKRNPALYASNVRRVMAEALGVSVTDYTFEDCQLALAEGQLRLPADTCLLEFARLVRGLGLKPEKLEKDLDRYSERARMKGGEKIGIAEFAASLEVPVSDLLEDMFSLFDESGSGEVDLRECVVALSVVCRPARTLDTIQLAFKMYGAQEDGSVGEGDLSCILKTALGVAELTVTDLFRAIDQEEKGKITFADFHRFAEMYPAFAEEYLYPDQTHFESCAETSPAPIPNGFCADFSPENSDAGRKPVRKKLD | 1.16 |
| PSMD12 (protein) ADGGSERADGRIVKMEVDYSATVDQRLPECAKLAKEGRLQEVIETLLSLEKQTRTASDMVSTSRILVAVVKMCYEAKEWDLLNENIMLLSKRRSQLKQAVAKMVQQCCTYVEEITDLPIKLRLIDTLRMVTEGKIYVEIERARLTKTLATIKEQNGDVKEAASILQELQVETYGSMEKKERVEFILEQMRLCLAVKDYIRTQIISKKINTKFFQEENTEKLKLKYYNLMIQLDQHEGSYLSICKHYRAIYDTPCIQAESEKWQQALKSVVLYVILAPFDNEQSDLVHRISGDKKLEEIPKYKDLLKLFTTMELMRWSTLVEDYGMELRKGSLESPATDVFGSTEEGEKRWKDLKNRVVEHNIRIMAKYYTRITMKRMAQLLDLSVDESEAFLSNLVVNKTIFAKVDRLAGIINFQRPKDPNNLLNDWSQKLNSLMSLVNKTTHLIAKEEMIHNLQ | 1.18 |
| SLC25A22 (protein) MADKQISLPAKLINGGIAGLIGVTCVFPIDLAKTRLQNQQNGQRVYTSMSDCLIKTVRSEGYFGMYRGAAVNLTLVTPEKAIKLAANDFFRHQLSKDGQKLTLLKEMLAGCGAGTCQVIVTTPMEMLKIQLQDAGRIAAQRKILAAQGQLSAQGGAQPSVEAPAAPRPTATQLTRDLLRSRGIAGLYKGLGATLLRDVPFSVVYFPLFANLNQLGRPASEEKSPFYVSFLAGCVAGSAAAVAVNPCDVVKTRLQSLQRGVNEDTYSGILDCARKILRHEGPSAFLKGAYCRALVIAPLFGIAQVVYFLGIAESLLGLLQDPQA | 1.20 |
| FAF2 (protein) AAPEERDLTQEQTEKLLQFQDLTGIESMDQCRHTLEQHNWNIEAAVQDRLNEQEGVPSVFNPPPSRPLQVNTADHRIYSYVVSRPQPRGLLGWGYYLIMLPFRFTYYTILDIFRFALRFIRPDPRSRVTDPVGDIVSFMHSFEEKYGRAHPVFYQGTYSQALNDAKRELRFLLVYLHGDDHQDSDEFCRNTLCAPEVISLINTRMLFWACSTNKPEGYRVSQALRENTYPFLAMIMLKDRRMTVVGRLEGLIQPDDLINQLTFIMDANQTYLVSERLEREERNQTQVLRQQQDEAYLASLRADQEKERKKREERERKRRKEEEVQQQKLAEERRRQNLQEEKERKLECLPPEPSPDDPESVKIIFKLPNDSRVERRFHFSQSLTVIHDFLFSLKESPEKFQIEANFPRRVLPCIPSEEWPNPPTLQEAGLSHTEVLFVQDLTDE | 1.23 |
